Experimental data taken from patent US20210269509A1 (Genmab, published 2021).

Biological target: T1, Protein L (recombinant protein L immobilized on a matrix; HiTrap Protein L, GE Healthcare) (Finegoldia magna)
T1 construct: also called Protein L resin; Finegoldia magna Protein L
T1 chain: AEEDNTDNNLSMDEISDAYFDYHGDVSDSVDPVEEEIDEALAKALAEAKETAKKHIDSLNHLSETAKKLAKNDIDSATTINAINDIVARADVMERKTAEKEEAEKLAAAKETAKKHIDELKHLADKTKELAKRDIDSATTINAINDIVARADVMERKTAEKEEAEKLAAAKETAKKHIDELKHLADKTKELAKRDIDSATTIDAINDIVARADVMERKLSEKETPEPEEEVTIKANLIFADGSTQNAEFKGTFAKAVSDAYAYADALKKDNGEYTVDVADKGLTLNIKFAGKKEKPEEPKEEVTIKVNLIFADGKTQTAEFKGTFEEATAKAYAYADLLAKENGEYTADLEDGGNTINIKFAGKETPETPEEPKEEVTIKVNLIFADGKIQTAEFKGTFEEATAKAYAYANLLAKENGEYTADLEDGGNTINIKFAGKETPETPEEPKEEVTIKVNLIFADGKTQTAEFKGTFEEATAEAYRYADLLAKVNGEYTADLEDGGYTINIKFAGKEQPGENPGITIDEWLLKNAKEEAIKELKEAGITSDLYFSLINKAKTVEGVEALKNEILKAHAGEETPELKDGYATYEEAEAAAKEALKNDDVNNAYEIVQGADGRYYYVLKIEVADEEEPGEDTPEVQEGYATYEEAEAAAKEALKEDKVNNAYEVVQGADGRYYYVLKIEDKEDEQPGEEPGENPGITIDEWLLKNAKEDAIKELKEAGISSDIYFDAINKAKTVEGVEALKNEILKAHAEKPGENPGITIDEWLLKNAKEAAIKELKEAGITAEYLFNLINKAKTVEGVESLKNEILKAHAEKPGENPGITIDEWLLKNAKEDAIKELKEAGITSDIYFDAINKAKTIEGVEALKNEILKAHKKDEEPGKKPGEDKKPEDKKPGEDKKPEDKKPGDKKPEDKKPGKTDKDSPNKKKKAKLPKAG
Assay: HiTrap Protein L (5 mL) chromatography of purified antibody, step elution at pH 3.5, 3.0 and 2.5, A280 trace
Description: 10 mL of the supernatant was loaded onto the HiTrap Protein L column. […] The column was washed with PBS and specifically bound material was eluted sequentially with 0.1 M glycine-HCl pH 3.5, 3.0 and 2.5 and neutralized with a few drops of 2M Tris pH 9.0. The column was washed using 15 mM sodium hydroxide.

binding result: no binding
B1: IgG1-2F8-F405L-S12P (antibody, name in EU numbering)
heavy: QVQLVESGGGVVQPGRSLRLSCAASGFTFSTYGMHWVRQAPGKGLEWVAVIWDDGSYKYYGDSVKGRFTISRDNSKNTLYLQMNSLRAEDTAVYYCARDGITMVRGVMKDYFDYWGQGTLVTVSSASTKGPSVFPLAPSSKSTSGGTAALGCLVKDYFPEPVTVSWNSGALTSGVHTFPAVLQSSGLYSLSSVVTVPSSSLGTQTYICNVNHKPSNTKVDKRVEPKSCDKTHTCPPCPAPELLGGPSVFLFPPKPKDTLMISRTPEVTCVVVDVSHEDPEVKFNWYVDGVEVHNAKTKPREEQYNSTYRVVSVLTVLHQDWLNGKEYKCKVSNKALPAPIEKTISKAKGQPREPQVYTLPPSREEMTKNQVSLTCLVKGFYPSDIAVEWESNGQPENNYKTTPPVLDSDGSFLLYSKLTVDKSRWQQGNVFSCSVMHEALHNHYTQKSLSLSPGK
light: AIQLTQSPSSLPASVGDRVTITCRASQDISSALVWYQQKPGKAPKLLIYDASSLESGVPSRFSGSESGTDFTLTISSLQPEDFATYYCQQFNSYPLTFGGGTKVEIKRTVAAPSVFIFPPSDEQLKSGTASVVCLLNNFYPREAKVQWKVDNALQSGNSQESVTEQDSKDSTYSLSSTLTLSKADYEKHKVYACEVTHQGLSSPVTKSFNRGEC
notes: IgG1m(f), kappa; also called IgG-2F8-F405L-S12P; IgG1-2F8-S12P
